Reference: US11160888B2, “PET tracer for imaging of neuroendocrine tumors” (priority 2011, dated 2021)

Key:
[1] = 64Cu-DOTATATE PET biodistribution by SUV quantitation in neuroendocrine tumor patients; conditions: both, human, pituitary, adrenals, spleen, iv, 200 MBq, total radioactivity
Description: (§1) Fourteen consecutively enrolled patients participated in this pilot study and underwent PET scanning with the new tracer on several time points. Patients were eligible in case of a histopathologically confirmed neuroendocrine tumor including positive immunostainings for chromogranin A and synaptophysin. They got offered study inclusion in case of referral to conventional SRI as part of routine follow-up. The maximum allowed time interval between both imaging modalities was 60 days. According to local clinical routine there was no need for interruption of biotherapy e.g. withdrawal of long- or short-time acting somatostatin analogs. However, patients must not have undergone major surgical interventions or systemic chemotherapy between conventional SRI and the PET scanning. The study group consisted of thirteen patients with gastroenteropancreatic neuroendocrine tumors (2 foregut, 6 midgut, 5 NET of unknown origin) and one patient with a known mutation in the multiple endocrine neoplasia I gene, who was diagnosed with a bronchogenic NET ten years ago. Age ranged from 40-80 years. Gender distribution: four women, ten men. Ten of the tumors were active functioning causing classical carcinoid syndromes mainly due to hepatic tumor load. One patient had shown clinical and biochemical manifestations of a Zollinger-Ellison syndrome at time of diagnosis. Twelve patients were in advanced disease state—TNM stage IV according to most recently both UICC/AJCC and ENETS classifications. Two patients had undergone respectively R0- and R1-resections, both without detectable disease so far. Patient recruiting and follow-up was carried out at the Department of Abdominal Surgery C. SRI was performed at the Department of Clinical Physiology, Nuclear Medicine and PET. Both departments are part of the Neuroendocrine Tumor Center of Excellence, Rigshospitalet, University of Copenhagen, Denmark. All patients had given written informed consent prior to inclusion. The study was approved by the Danish Medicines Agency and the Regional Research Ethics Committee.
(§2) PET-CT images were acquired on an integrated PET-CT Siemens Biograph True X, multi-slice. […] Imaging was performed 1h, 3h and 24h after injection.
(§3) Planar whole-body scans/SPECT-CT and PET-CT images were evaluated by two separate teams consisting of both a nuclear medicine physician and a radiologist. Both teams were briefed about the patients past medical history. When abnormal findings only detected on co-registered CT had led the attention to a specific anatomical site, this particular region was revaluated using the molecular imaging data. Judged visually, there also had to be clearly detectable lesion to be accounted as true SRI positive as this was the main focus of interest of the present study. However, all lesions were documented, whether identified on CT images or by SRI. Findings were reported according to their respective anatomical site and if possible absolute numbers of lesions per organ system. […] While still remaining blinded to the opposite SRI results, this disparity was tried to balance by additionally providing the team evaluating ^111In-pentreotide SPECT-CT scans with the findings from contrast enhanced diagnostic CT. Interpretation of conventional SRI was performed based on the knowledge of normal tissue accumulation of ^111In-pentreotide. Interpretation of the findings from the new PET method was carried out in a similar manner being aware of possible differences regarding residence times and excretion patterns of the new tracer. Confirmation of the pointed-out lesions was sought by routine follow-up including CT, MRI, conventional SRI and biopsy if possible. Newly detected lesions on co-registered CT imaging were accepted for confirmations as well. Semi-quantitative analysis of tissue radioactivity concentrations was performed by drawing volumes of interests (VOI) around detected lesions and encompassing normal tissues with appreciable tracer uptake on fused PET-CT images.

[2] = tested on: somatostatin receptor; test: as above
Description: as §1, §2, §3

[3] = tested on: neuroendocrine tumor; test: Comparative lesion detection, 64Cu-DOTATATE PET versus 111In-DTPA-octreotide SPECT; format: in vivo, human
Description: as §1, §2
^111In-pentreotide was intravenously applied with a target dose of 200 MBq. The scans consisted of whole body planar scintigraphy and SPECT-CT: Planar images were acquired at 24 h (anterior and posterior whole-body scan, scan speed 5 cm/min, 512*1.024 matrix) and at 48 h (15 min static planar image (256*256 matrix) of the abdomen using a large field of view medium-energy collimator (Precedence 16-slice scanner, Philips Healthcare; VG Hawkeye, GE Healthcare). SPECT (20 sec/step, 128 angles, 128*128 matrix) over the abdomen was obtained at 24 or 48 h, and included also the chest if a pathological focus was suspected from the whole body scan. A low-dose CT was used as anatomical guide and for attenuation correction. SPECT and CT were fused and reviewed on dedicated workstations (EBW, Philips Healthcare; eNTEGRA, GE Healthcare).
Planar whole-body scans/SPECT-CT and PET-CT images were evaluated by two separate teams consisting of both a nuclear medicine physician and a radiologist. Both teams were briefed about the patients past medical history. When abnormal findings only detected on co-registered CT had led the attention to a specific anatomical site, this particular region was revaluated using the molecular imaging data. Judged visually, there also had to be clearly detectable lesion to be accounted as true SRI positive as this was the main focus of interest of the present study. However, all lesions were documented, whether identified on CT images or by SRI. Findings were reported according to their respective anatomical site and if possible absolute numbers of lesions per organ system.

[4] = human, in vivo
Description: No additional radiochemical purification step was required. […] The mean administered activity was 207 6 10 MBq (range, 193-232 MBq). […] This side effect was probably due to the somatostatin analog contained in the tracer.

[5] = in vivo

SMILES: CC(O)[C@H](NC(=O)[C@@H]1CSSC[C@H](NC(=O)[C@@H](Cc2ccccc2)NC(=O)CN2CCN(CC(=O)O)CCN(CC(=O)O)CCN(CC(=O)O)CC2)C(=O)N[C@@H](Cc2ccc(O)cc2)C(=O)N[C@H](Cc2c[nH]c3ccccc23)C(=O)N[C@@H](CCCCN)C(=O)N[C@@H](C(C)O)C(=O)N1)C(=O)O (stereo partly shown) [64Cu-DOTATATE, metal not drawn]
- SUV [1]: ≤ 20 SUV
- activity distribution on late scan ([2]; 24 h after injection): activity washout from most organs and lesions
- SUVmax range ([2]; bone lesions, 1 h): 30-117
- SUVmax range ([2]; bone lesions, 3 h): 27-111
- tracer accumulation category (high, moderate, faint) ([2]; liver and spleen): Moderate to high
- SUVmax range ([2]; liver lesions, 1 h): 20-81
- SUVmax range ([2]; liver lesions, 3 h): 26-81
- SUVmax range ([2]; lymph nodes (lesions), 1 h): 9-110
- SUVmax range ([2]; lymph nodes (lesions), 3 h): 9-115
- tracer accumulation category (high, moderate, faint) ([2]; pituitary, adrenal glands, kidneys, renal pelvis, urinary bladder): High
- tracer accumulation category (high, moderate, faint) ([2]; salivary glands, in 12 of 14 patients): faint to moderate
- tracer accumulation category (high, moderate, faint) ([2]; thyroid gland, in 2 patients): moderate
- image quality compared with SPECT with 111In-DTPA-octreotide ([3]; PET): considerably better image quality
- number of lymph node lesions revealed ([3]; all 14 patients): 98
- Number and localization of lesions detected ([3]; patient no. 2): Negative
- Number and localization of lesions detected ([3]; patient no. 4): Negative
- Number and localization of lesions detected ([3]; patient no. 5): Lymph nodes (>30)
- Number and localization of lesions detected ([3]; patient no. 7): Pancreas (1), liver (>10) bones (>10)
- Number and localization of lesions detected ([3]; patient no. 10): Lymph nodes (10)
- Number and localization of lesions detected ([3]; patient no. 11): Liver (>10)
- adverse or clinically detectable pharmacologic effects [4]: no adverse or clinically detectable pharmacologic effects
- changes in vital signs [4]: No significant changes
- subjects who experienced self-limiting nausea [4]: 4 subjects
- absorbed dose [5]: 0.19 mGy/MBq
- estimated effective dose [5]: 6.3 mSv
